Target: taxol-stabilized microtubules prepared from bovine brain tubulin, P81947
Sequence (P81947 whole entry, chain 1 of 2): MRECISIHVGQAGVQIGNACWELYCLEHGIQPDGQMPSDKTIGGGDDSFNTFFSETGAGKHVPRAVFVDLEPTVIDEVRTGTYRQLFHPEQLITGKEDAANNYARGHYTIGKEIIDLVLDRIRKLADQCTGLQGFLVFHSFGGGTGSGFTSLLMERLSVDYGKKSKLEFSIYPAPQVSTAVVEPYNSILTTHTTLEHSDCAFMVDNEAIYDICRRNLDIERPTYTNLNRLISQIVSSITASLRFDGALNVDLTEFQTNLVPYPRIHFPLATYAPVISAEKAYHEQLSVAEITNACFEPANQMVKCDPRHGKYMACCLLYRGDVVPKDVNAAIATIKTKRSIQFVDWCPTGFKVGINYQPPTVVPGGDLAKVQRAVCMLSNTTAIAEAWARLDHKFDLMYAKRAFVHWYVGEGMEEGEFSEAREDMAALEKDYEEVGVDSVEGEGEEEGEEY
Sequence (chain, as listed by the source, chain 2 of 2): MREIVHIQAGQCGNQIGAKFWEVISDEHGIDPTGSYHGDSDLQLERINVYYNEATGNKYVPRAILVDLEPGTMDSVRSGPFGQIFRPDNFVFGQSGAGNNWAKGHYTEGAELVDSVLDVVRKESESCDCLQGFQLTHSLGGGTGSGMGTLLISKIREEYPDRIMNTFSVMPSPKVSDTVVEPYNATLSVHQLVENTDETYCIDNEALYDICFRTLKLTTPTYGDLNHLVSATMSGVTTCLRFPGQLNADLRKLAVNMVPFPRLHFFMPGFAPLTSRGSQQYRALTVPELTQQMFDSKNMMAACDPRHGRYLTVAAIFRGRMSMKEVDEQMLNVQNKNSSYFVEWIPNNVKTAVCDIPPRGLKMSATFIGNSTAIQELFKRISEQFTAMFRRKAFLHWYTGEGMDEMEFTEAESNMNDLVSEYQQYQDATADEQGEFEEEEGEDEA

B1: baculovirus co-expressed S. purpuratus katanin p60/p80 heterodimer, each subunit with N-terminal His(6) tag (protein)
chain 1: MSVDEICENTKMGREYALLGNYETSLVYYQGVLQQIQKLLTSVHEPQRKHQWQTIRQELSQEYEHVKNITKTLNGFKSEPAAPEPAPNHGRAAPFSHHQHAAKPAAAEPARDPDVWPPPTPVDHRPSPPYQRAARKDPPRRSEPSKPANRAPGNDRGGRGPSDRRGDARSGGGGRGGARGSDKDKNRGGKSDKDKKAPSGEEGDEKKFDPAGYDKDLVENLERDIVQRNPNVHWADIAGLTEAKRLLEEAVVLPLWMPDYFKGIRRPWKGVLMVGPPGTGKTMLAKAVATECGTTFFNVSSASLTSKYHGESEKLVRLLFEMARFYAPSTIFIDEIDSICSKRGTGSEHEASRRVKSELLIQMDGVSGPSAGEESSKMVMVLAATNFPWDIDEALRRRLEKRIYIPLPEIDGREQLLRINLKEVPLADDIDLKSIAEKMDGYSGADITNVCRDASMMAMRRRIQGLRPEEIRHIPKEELNQPSTPADFLLALQKVSKSVGKEDLVKYMAWMEEFGSV
chain 2: MATKRAWKLQELVAHSSNVNCLALGPMSGRVMVTGGEDKKVNLWAVGKQNCIISLSGHTSPVDSVKFNSSEELVVAGSQSGTMKIYDLEPAKIVRTLTGHRNSIRCMDFHPFGEFVASGSTDTNVKLWDVRRKGCIYTYKGHSDQVNMIKFSPDGKWLVTASEDTTIKLWDLTMGKLFQEFKNHTGGVTGIEFHPNEFLLASGSSDRTVQFWDLETFQLVSSTSPGASAVRSISFHPDGSYLFCSSQDMLHAFGWEPIRCFDTFSVFWGKVADTVIASTQLIGASFNATNVSVYVADLSRMSTTGIAQEPQSQPSKTPSGGAEEVPSKPLTASGRKNFVRERPHTTSSKQRQPDVKSEPERQSPTQDEGVKDDDATDIKDPDSYAKIFSPKTRVDHSPERNAQPFPAPLDVPGAQEPEPFKHPPKPAAAAAVAPVSRAPAPSASDWQPAQANPAPNRVPAATKPVPAQEVAPSRKPDPISTIIPSDRNKPANLDMDAFLPPAHAQQAPRVNAPASRKQSDSERIEGLRKGHDSMCQVLSSRHRNLDVVRAIWTAGDAKTSVESVVNMKDQAILVDILNIMLLKKSLWNLDMCVVVLPRLKELLSSKYENYVHTSCACLKLILKNFTSLFNQNIKCPPSGIDITREERYNKCSKCYSYLIATRGYVEEKQHVSGKLGSSFRELHLLLDQLE
- ATPase activity (ATP turnover), stimulation by microtubules: this activity was stimulated ~10-fold by microtubules
- maximal microtubule-stimulated ATPase rate: maximal microtubule-stimulated rate of 3 ATP/katanin/sec
- microtubule concentration at peak ATPase stimulation: peak at ~2 uM tubulin
- microtubule severing, fluorescence microscopy assay: Both p60 and p60/p80 severed microtubules in this assay

B2: baculovirus-expressed S. purpuratus katanin p60 subunit with N-terminal His(6) tag (protein)
chain: MSVDEICENTKMGREYALLGNYETSLVYYQGVLQQIQKLLTSVHEPQRKHQWQTIRQELSQEYEHVKNITKTLNGFKSEPAAPEPAPNHGRAAPFSHHQHAAKPAAAEPARDPDVWPPPTPVDHRPSPPYQRAARKDPPRRSEPSKPANRAPGNDRGGRGPSDRRGDARSGGGGRGGARGSDKDKNRGGKSDKDKKAPSGEEGDEKKFDPAGYDKDLVENLERDIVQRNPNVHWADIAGLTEAKRLLEEAVVLPLWMPDYFKGIRRPWKGVLMVGPPGTGKTMLAKAVATECGTTFFNVSSASLTSKYHGESEKLVRLLFEMARFYAPSTIFIDEIDSICSKRGTGSEHEASRRVKSELLIQMDGVSGPSAGEESSKMVMVLAATNFPWDIDEALRRRLEKRIYIPLPEIDGREQLLRINLKEVPLADDIDLKSIAEKMDGYSGADITNVCRDASMMAMRRRIQGLRPEEIRHIPKEELNQPSTPADFLLALQKVSKSVGKEDLVKYMAWMEEFGSV
- microtubule concentration at peak ATPase stimulation: peak at ~2 uM tubulin
- microtubule severing, fluorescence microscopy assay: Both p60 and p60/p80 severed microtubules in this assay
- microtubule-stimulated ATPase activity: p60 alone displayed a microtubule-stimulated ATPase activity
